Columns and labels:
[1] = molecular target: T1, Recombinant wild-type septin complex Pnut-Sep2-Sep1 (His tag removed) (Drosophila melanogaster, UniProt P40797 1-539; P54359 1-419; P42207 1-361); assay: negative-stain EM with Ni-NTA Nanogold labelling
T1 sequence (looked up) 1: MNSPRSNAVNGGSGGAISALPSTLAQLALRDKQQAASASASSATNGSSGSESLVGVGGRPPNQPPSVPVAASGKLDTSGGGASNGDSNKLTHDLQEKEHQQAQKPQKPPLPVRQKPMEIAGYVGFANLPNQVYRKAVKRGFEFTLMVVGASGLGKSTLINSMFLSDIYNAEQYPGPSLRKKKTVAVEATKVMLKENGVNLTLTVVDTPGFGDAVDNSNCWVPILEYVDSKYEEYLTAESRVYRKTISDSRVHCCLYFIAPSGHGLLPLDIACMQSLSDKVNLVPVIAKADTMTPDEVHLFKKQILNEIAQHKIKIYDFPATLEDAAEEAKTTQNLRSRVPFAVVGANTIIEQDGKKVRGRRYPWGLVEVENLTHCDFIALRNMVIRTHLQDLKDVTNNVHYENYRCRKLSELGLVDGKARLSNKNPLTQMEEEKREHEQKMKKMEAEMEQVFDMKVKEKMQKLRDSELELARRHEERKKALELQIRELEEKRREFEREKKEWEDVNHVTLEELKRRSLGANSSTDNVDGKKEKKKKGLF
T1 sequence (looked up) 2: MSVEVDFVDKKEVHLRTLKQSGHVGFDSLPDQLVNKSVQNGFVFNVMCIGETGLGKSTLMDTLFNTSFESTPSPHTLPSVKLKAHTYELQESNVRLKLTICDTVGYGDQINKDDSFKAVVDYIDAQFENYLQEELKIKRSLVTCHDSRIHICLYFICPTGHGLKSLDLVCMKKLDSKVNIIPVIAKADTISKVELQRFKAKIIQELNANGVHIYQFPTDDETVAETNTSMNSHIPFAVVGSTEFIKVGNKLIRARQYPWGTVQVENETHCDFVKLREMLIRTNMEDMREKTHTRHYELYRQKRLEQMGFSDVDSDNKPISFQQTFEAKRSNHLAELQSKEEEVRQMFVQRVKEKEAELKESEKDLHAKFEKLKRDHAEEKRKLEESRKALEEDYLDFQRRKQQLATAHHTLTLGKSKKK
T1 sequence (looked up) 3: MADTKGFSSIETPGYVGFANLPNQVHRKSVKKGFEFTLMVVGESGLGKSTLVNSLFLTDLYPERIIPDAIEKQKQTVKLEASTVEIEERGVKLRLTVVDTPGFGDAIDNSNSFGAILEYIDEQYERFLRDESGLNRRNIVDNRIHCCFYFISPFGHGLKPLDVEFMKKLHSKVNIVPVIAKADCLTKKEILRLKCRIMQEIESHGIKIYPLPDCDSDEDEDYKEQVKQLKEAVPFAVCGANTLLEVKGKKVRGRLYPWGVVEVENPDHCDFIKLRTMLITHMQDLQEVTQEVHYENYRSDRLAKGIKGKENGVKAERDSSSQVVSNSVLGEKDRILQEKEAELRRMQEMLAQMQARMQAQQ

SEC = molecular target: the molecule itself; assay: SEC
GST-Orc6, wild type = molecular target: T2, GST-Orc6, wild type (Drosophila, UniProt Q9Y1B2 1-257); assay: pull-down
T2 sequence (looked up): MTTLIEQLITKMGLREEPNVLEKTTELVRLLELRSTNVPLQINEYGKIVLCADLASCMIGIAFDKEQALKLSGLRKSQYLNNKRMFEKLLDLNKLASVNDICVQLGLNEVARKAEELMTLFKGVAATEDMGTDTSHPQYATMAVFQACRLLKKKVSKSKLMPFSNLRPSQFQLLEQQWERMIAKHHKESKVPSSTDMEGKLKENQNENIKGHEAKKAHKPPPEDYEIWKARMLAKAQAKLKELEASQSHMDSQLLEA

His-GFP-Orc6, wild type = molecular target: T3, His-GFP-Orc6, wild type (Drosophila, UniProt Q9Y1B2 1-257); assay: fluorescence polarisation
T3 sequence (looked up): T2 sequence (looked up)

B1: His-Orc6 Δ(1–186), N-terminus deletion (domain or fragment, Drosophila, UniProt Q9Y1B2 187-257, looked up)
chain: KESKVPSSTDMEGKLKENQNENIKGHEAKKAHKPPPEDYEIWKARMLAKAQAKLKELEASQSHMDSQLLEA
[1]
  binding result: binds

B2: His-Orc6 Δ(200–257), Orc6 with truncated C-terminus (domain or fragment, Drosophila, UniProt Q9Y1B2 1-199, looked up)
chain: MTTLIEQLITKMGLREEPNVLEKTTELVRLLELRSTNVPLQINEYGKIVLCADLASCMIGIAFDKEQALKLSGLRKSQYLNNKRMFEKLLDLNKLASVNDICVQLGLNEVARKAEELMTLFKGVAATEDMGTDTSHPQYATMAVFQACRLLKKKVSKSKLMPFSNLRPSQFQLLEQQWERMIAKHHKESKVPSSTDMEG
SEC
  binding result: binds
GST-Orc6, wild type
  binding result: binds
His-GFP-Orc6, wild type
  binding result: binds

B3: His-Orc6, wild type, Orc6-wt (1–257) (natural protein, Drosophila, UniProt Q9Y1B2 1-257, looked up)
chain: T2 sequence (looked up)
SEC
  stoichiometry N: 2
[1]
  stoichiometry N: 2.26 ± 0.34 Nanogold particles (His-Orc6 molecules) per septin hexamer
